What all share (experiment): MST; CD99-Fc labelled with RED-NHS 2nd generation, in PBS/0.005% Tween-20; GDF6 prodomain from transfected 293T cells serially diluted in Opti-MEM; 30 minutes at room temperature; Monolith NT.115
Common to all, as to details: one partner purified

In assay [1] the target is T1, GDF6 prodomain (residue 1 - 335) (UniProt Q6KF10 23-335).
T1 construct: signal peptide in the construct; GDF6 (BMP13) prodomain, residue 1-335; Construct of the microscale thermophoresis; no tag and no purification are stated; also called wild-type GDF6 prodomain
T1 sequence (looked up): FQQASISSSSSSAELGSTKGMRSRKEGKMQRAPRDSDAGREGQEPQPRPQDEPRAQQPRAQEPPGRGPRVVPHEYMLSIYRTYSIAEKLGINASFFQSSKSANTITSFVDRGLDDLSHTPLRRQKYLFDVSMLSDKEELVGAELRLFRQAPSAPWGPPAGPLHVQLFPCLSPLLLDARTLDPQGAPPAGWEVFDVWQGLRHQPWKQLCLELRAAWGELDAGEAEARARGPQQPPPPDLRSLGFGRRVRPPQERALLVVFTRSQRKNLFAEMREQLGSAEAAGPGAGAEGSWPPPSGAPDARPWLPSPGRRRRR

In assay [2] the target is T2, GDF6 A249E prodomain (UniProt Q6KF10 23-335, A249E).
T2 construct: signal peptide in the construct; GDF6 prodomain with the Klippel-Feil syndrome mutation A249E; limits as stated for the wild type in the same sentence (residue 1-335); Construct of the microscale thermophoresis; mutation recurrent in Klippel-Feil syndrome patients
T2 sequence (looked up): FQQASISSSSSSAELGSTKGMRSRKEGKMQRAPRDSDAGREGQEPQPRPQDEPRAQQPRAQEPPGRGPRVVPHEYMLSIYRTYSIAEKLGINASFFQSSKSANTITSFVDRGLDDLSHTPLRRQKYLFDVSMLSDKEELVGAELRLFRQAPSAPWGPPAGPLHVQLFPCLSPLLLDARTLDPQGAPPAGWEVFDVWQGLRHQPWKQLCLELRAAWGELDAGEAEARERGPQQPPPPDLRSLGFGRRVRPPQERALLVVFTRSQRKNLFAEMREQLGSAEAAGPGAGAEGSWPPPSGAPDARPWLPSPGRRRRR

The target in assay [3] is T3, GDF6 L289P prodomain (UniProt Q6KF10 23-335, L289P).
T3 construct: signal peptide in the construct; GDF6 prodomain with the Klippel-Feil syndrome mutation L289P; limits as stated for the wild type in the same sentence (residue 1-335); Construct of the microscale thermophoresis; mutation recurrent in Klippel-Feil syndrome patients
T3 sequence (looked up): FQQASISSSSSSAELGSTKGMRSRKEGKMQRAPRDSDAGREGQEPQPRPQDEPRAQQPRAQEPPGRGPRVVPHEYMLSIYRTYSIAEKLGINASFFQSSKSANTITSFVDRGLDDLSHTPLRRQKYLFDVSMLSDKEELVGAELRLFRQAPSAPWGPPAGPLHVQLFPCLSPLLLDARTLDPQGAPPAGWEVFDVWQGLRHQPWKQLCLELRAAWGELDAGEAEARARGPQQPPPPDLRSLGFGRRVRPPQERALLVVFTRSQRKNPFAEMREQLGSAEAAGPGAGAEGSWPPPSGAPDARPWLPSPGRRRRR

B1: Recombinant human CD99-Fc fusion protein (residue 23 - 122) (Fc fusion, UniProt P14209 23-122, looked up)
chain: DGGFDLSDALPDNENKKPTAIPKKPSAGDDFDLGDAVVDGENDDPRPPNPPKPMPNPNPNHPSSSGSFSDADLADGVSGGEGKGGSDGGGSHRKEGEEAD
modifications: RED-NHS 2nd generation dye, amine reactive (labelled for the microscale thermophoresis only)
notes: The source is stated for the MST; the protein A Sepharose pull-down names the same limits and tag but no source; source: bought: R&D Systems (3968-CD-050); not shown: Fc, C-terminal, kept
As a reminder, the Kd is the free concentration of one partner at which half of the binding sites on the other are occupied at equilibrium, for simple one-to-one binding. A higher Kd goes with a looser complex. For B1, the Kd was found to be 17.2 nM in assay [1], 3.34 nM in assay [2] and 2.26 nM in assay [3].
